Data taken from patent US20040009175A1.

B1: (His)6TAO1(1-416) (protein)
chain: MRGSHHHHHHMPSTNRAGSLKDPEIAELFFKEDPEKLFTDLREIGHGSFGAVYFARDVRTNEVVAIKKMSYSGKQSTEKWQDIIKEVKFLQRIKHPNSIEYKGCYLREHTAWLVMEYCLGSASDLLEVHKKPLQEVEIAAITHGALQGLAYLHSHTMIHRDIKAGNILLTEPGQVKLADFGSASMASPANSFVGTPYWMAPEVILAMDEGQYDGKVDVWSLGITCIELAERKPPLFNMNAMSALYHIAQNESPTLQSNEWSDYFRNFVDSCLQKIPQDRPTSEELLKHMFVLRERPETVLIDLIQRTKDAVRELDNLQYRKMKKLLFQEAHNGPAVEAQEEEEEQDHGGGRTGTVNSVGSNQSIPSMSISASSQSSSVNSLPDASDDKSELDMMEGDHTVMSNSSVIHLKPEEENYQEEGDPRTRA
B2: full-length HA-tagged TAO1 (enzyme, not shown: small tags and cut ends)
chain: MPSTNRAGSLKDPEIAELFFKEDPEKLFTDLREIGHGSFGAVYFARDVRTNEVVAIKKMSYSGKQSTEKWQDIIKEVKFLQRIKHPNSIEYKGCYLREHTAWLVMEYCLGSASDLLEVHKKPLQEVEIAAITHGALQGLAYLHSHTMIHRDIKAGNILLTEPGQVKLADFGSASMASPANSFVGTPYWMAPEVILAMDEGQYDGKVDVWSLGITCIELAERKPPLFNMNAMSALYHIAQNESPTLQSNEWSDYFRNFVDSCLQKIPQDRPTSEELLKHMFVLRERPETVLIDLIQRTKDAVRELDNLQYRKMKKLLFQEAHNGPAVEAQEEEEEQDHGGGRTGTVNSVGSNQSIPSMSISASSQSSSVNSLPDASDDKSELDMMEGDHTVMSNSSVIHLKPEEENYQEEGDPRTRASAPQSPPQVSRHKSHYRNREHFATIRTASLVTRQMQEHEQDSELREQMSGYKRMRRQHQKQLMTLENKLKAEMDEHRLRLDKDLETQRNNFAAEMEKLIKKHQASMEKEAKVMANEEKKFQQHIQAQQKKELNSFLESQKREYKLRKEQLKEELNENQSTPKKEKQEWLSKQKENIQHFQAEEEANLLRRQRQYLELECRRFKRRMLLGRHNLEQDLVREELNKRQTQKDLEHAMLLRQHESMQELEFRHLNTIQKMRCELIRLQHQTELTNQLEYNKRRERELRRKHVMEVRQQPKSLKSKELQIKKQFQDTCKIQTRQYKALRNHLLETTPKSEHKAVLKRLKEEQTRKLAILAEQYDHSINEMLSTQALRLDEAQEAECQVLKMQLQQELELLNAYQSKIKMQAEAQHDRELRELEQRVSLRRALLEQKIEEEMLALQNERTERIRSLLERQAREIEAFDSESMRLGFSNMVLSNLSPEAFSHSYPGASSWSHNPTGGSGPHWGHPMGGTPQAWGHPMQGGPQPWGHPSGPMQGVPRGSSIGVRNSPQALRRTALGGRTEQGMSRSTSVTSQISNGSHMSYT

Experiments:
[1] = target: Recombinant GST-MEK5 [GST: P08515]
GST-MEK4 [GST: P08515] = assay: cell-based or functional assay
myc-tagged MEK3 = assay: cell-based or functional assay

Row | Binder | enhancement of the ability of MEK3 to phosphorylate p38 (in vitro linked kinase assay) ((His)6MEK3) | increase of the ability of GST-MEK6 to phosphorylate (His)6p38 (in vitro linked kinase assay) (GST-MEK6 [GST: P08515]) | activity of MEK1 towards the substrate (His)6ERK2 (in vitro linked kinase assay) (MEK1) | activity of MEK2 towards the substrate (His)6ERK2 (in vitro linked kinase assay) (MEK2) | phosphorylation of GST-MEK5 (in vitro kinase assay) [1] | activation of GST-MEK4 toward (His)6p38 (in vitro linked kinase assay) (GST-MEK4 [GST: P08515]) | activation of GST-MEK4 towards GST-SAPKβ (in vitro linked kinase assay) (GST-MEK4 [GST: P08515]) | MEK3 activity in anti-myc immunoprecipitates from co-transfected 293 cells (myc-tagged MEK3) | activity toward p38 of myc-tagged MEK3 immunoprecipitated from co-transfected 293 cells (myc-tagged MEK3)
1 | B1 | approximately 100-fold | by 5-fold | completely unable to increase the activity of MEK1 or MEK2 towards the substrate (His)6ERK2 | completely unable to increase the activity of MEK1 or MEK2 towards the substrate (His)6ERK2 | Recombinant GST-MEK5 was not phosphorylated by (His)6TAO1(1-416) | 5 fold | 150 fold | – | –
2 | B2 | – | – | – | – | – | – | – | 3 to 4 fold | 3 fold
